Data taken from paper PMC4505066 (2015).

B1: wild type GSI motif peptide (CPRPLKEGSITQGTPLKYDTG), SMRT amino acids 1450-1469 with an amino-terminal cysteine [modified: BODIPY-TMR coupled to the N-terminal cysteine; BODIPY-TMR coupled to the N-terminal cysteine] [not stated] / HDAC4 … (parent complex)
chain 1: CPRPLKEGSITQGTPLKYDTG
chain 2: TKPRFTTGLVYDTLMLKHQCTCGSSSSHPEHAGRIQSIWSRLQETGLRGKCECIRGRKATLEELQTVHSEAHTLLYGTNPLNRQKLDSKKLLGSLASVFVRLPCGGVGVDSDTIWNEVHSAGAARLAVGCVVELVFKVATGELKNGFAVVRPPGHHAEESTPMGFCYFNSVAVAAKLLQQRLSVSKILIVDWDVHHGNGTQQAFYSDPSVLYMSLHRYDDGNFFPGSGAPDEVGTGPGVGFNVNMAFTGGLDPPMGDAEYLAAFRTVVMPIASEFAPDVVLVSSGFDAVEGHPTPLGGYNLSARCFGYLTKQLMGLAGGRIVLALEGGHDLTAICDASEACVSALLGNELDPLPEKVLQQRPNANAVRSMEKVMEIHSKYWRCLQRTTSTAGRSLIEAQTCENEEAETVT

Variants of: B1
Assay: fluorescence anisotropy

Point of comparison: chain 1 CPRPLKEGSITAGTPLKYDTG [chain 1 Q12A], Kd 5.47 µM. Against it:
- chain 1 CPRPLKEGSITQGTALKYDTG [chain 1 P15A] — 8.6-fold higher, 47 µM
- chain 1 CPRPLKEGSIAQGTPLKYDTG [chain 1 T11A] — 2.6-fold higher, 14.4 µM
- chain 1 CPRPLKEGSIVQGTPLKYDTG [chain 1 T11V] — 3.1-fold higher, 16.9 µM
- chain 1 CPRPLKEGSITEGTPLKYDTG [chain 1 Q12E] — 3.2-fold higher, 17.7 µM
